According to patent publication US20100028342A1:
pEC50, pIC50, pKd: −log10 of the molar value.

Tests used:
[1] = target: recombinant extracellular portion of human IGF-IR (soluble IGF-IR) (human) (UniProt P08069); test: competition: cold IGF-II against radiolabeled IGF-I on immobilized IGF-IR; cold IGF-II as competitor
[2] = target: recombinant extracellular portion of human IGF-IR (soluble IGF-IR) (human) (UniProt P08069); test: human IGF-IR-based ELISA, column Binding (ED50)
[3] = target: recombinant extracellular portion of human IGF-IR (soluble IGF-IR) (human) (UniProt P08069); test: human IGF-IR binding ELISA, repeated with the same sample of A12
[4] = target: recombinant extracellular portion of human IGF-IR (soluble IGF-IR) (human) (UniProt P08069); test: ligand blocking of IGF-I binding to IGF-IR, column Blocking (EC50)
[5] = target: recombinant extracellular portion of human IGF-IR (soluble IGF-IR) (human) (UniProt P08069); test: BIAcore 3000, soluble IGF-IR immobilized on the sensor chip, full IgG in solution
[6] = target: recombinant extracellular portion of human IGF-IR (soluble IGF-IR) (human) (UniProt P08069); test: ratio of plate binding: ED50 on human IGF-IR against the highest concentration tested on IR
[7] = target: recombinant extracellular portion of human IGF-IR (soluble IGF-IR) (human) (UniProt P08069); test: competition: blocking of radiolabeled IGF-I binding to immobilized IGF-IR

antibody A12 (fully human IgG1 anti-IGF-IR antibody), sequence (VH): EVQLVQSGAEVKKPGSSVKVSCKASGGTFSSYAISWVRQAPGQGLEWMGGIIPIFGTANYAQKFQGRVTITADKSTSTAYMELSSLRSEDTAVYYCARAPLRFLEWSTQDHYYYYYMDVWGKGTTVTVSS
antibody A12 (fully human IgG1 anti-IGF-IR antibody), sequence (VL): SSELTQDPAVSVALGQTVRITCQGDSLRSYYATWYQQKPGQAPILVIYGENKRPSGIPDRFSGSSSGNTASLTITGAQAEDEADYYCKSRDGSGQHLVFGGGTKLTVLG

Row | pIC50 [1] | pEC50 [2] | pEC50 [3] | pEC50 [4] | pKd [5] | koff [5] [s⁻¹] | kon [5] [M⁻¹ s⁻¹] | selectivity for IGF-IR in comparison to IR [6] [fold] | pIC50 [7] | Substance
1 | 8.22 | – | – | – | – | – | – | – | – | IGF-II (from UniProt P01344 25-91) (ligand)
2 | – | 9.52 | 9.30 to 9.52 | 9.00 to 9.22 | 10.39 | 3e-05 | 720000 | > 3000 | 9.00 | antibody A12 (fully human IgG1 anti-IGF-IR antibody)
